Experiment [1] addresses human PD-L1 on cells (human) (UniProt Q9NZQ7). Briefly: FACS staining of MDA-MB-231 cells with control antibody (expression profile), triplicates.
Experiment [2] shares this target. Briefly: FACS staining of HCT116 cells with control antibody (expression profile), triplicates.

Sequence of human PD-L1 on cells (human) (Q9NZQ7 19-290 limits assumed): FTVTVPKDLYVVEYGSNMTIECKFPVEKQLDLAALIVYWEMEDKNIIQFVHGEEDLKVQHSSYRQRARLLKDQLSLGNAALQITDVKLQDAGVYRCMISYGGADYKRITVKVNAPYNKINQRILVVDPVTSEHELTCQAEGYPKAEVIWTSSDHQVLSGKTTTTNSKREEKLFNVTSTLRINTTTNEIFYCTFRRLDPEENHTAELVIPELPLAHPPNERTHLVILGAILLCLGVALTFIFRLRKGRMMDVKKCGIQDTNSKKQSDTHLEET

For the substance anti-PD-L1 RG7446 MPDL3280A (antibody), the MFI was 74600 MFI in experiment [1] and 10900 MFI in experiment [2].
